Molecular target: the molecule itself
Assay: native gel or EMSA; hrCN-PAGE of digitonin extracts of cRNA-injected X. laevis oocytes (0.1 M sodium phosphate pH 8.0, 1 mM TCEP), non-denaturing conditions; GFP tags visualised by fluorescence scanning; masses judged against hTrpV1-GFP

B1: hNav1.7^GFP (natural protein)
chain: not shown
notes: numbers count on: isoform 3; pCMV6-neo-hNav1.7, Klugbauer et al. 1995; also called hNav1.7/WT; source: X. laevis oocytes, cRNA injected, in detergent extract (cleared supernatant); not shown: GFP, C-terminal, kept
stoichiometry N: 2

B2: hTRPV1^GFP (natural protein, human, UniProt Q8NER1-1 1-839, looked up)
chain: MKKWSSTDLGAAADPLQKDTCPDPLDGDPNSRPPPAKPQLSTAKSRTRLFGKGDSEEAFPVDCPHEEGELDSCPTITVSPVITIQRPGDGPTGARLLSQDSVAASTEKTLRLYDRRSIFEAVAQNNCQDLESLLLFLQKSKKHLTDNEFKDPETGKTCLLKAMLNLHDGQNTTIPLLLEIARQTDSLKELVNASYTDSYYKGQTALHIAIERRNMALVTLLVENGADVQAAAHGDFFKKTKGRPGFYFGELPLSLAACTNQLGIVKFLLQNSWQTADISARDSVGNTVLHALVEVADNTADNTKFVTSMYNEILMLGAKLHPTLKLEELTNKKGMTPLALAAGTGKIGVLAYILQREIQEPECRHLSRKFTEWAYGPVHSSLYDLSCIDTCEKNSVLEVIAYSSSETPNRHDMLLVEPLNRLLQDKWDRFVKRIFYFNFLVYCLYMIIFTMAAYYRPVDGLPPFKMEKTGDYFRVTGEILSVLGGVYFFFRGIQYFLQRRPSMKTLFVDSYSEMLFFLQSLFMLATVVLYFSHLKEYVASMVFSLALGWTNMLYYTRGFQQMGIYAVMIEKMILRDLCRFMFVYIVFLFGFSTAVVTLIEDGKNDSLPSESTSHRWRGPACRPPDSSYNSLYSTCLELFKFTIGMGDLEFTENYDFKAVFIILLLAYVILTYILLLNMLIALMGETVNKIAQESKNIWKLQRAITILDTEKSFLKCMRKAFRSGKLLQVGYTPDGKDDYRWCFRVDEVNWTTWNTNVGIINEDPGNCEGVKRTLSFSLRSSRVSGRHWKNFALVPLLREASARDRQSAQPEEVYLRQFSGSLKPEDAEVFKSPAASGEK
notes: human TRPV1, transcript variant 3, subcloned from pDONR201 into pNKS2; Used as mass marker on the native gel; calculated mass of the GFP-tagged protomer printed as 123 kDa; also called human TRPV1 (transient receptor potential cation channel subfamily V member 1); source: X. laevis oocytes, cRNA injected, in digitonin extract (cleared supernatant); not shown: GFP, C-terminal, kept
stoichiometry N: 4
